Laboratory results as given in paper PMC2441792.

Experiments:
[1] = molecular target: protein δ (ParA-Ib type Walker-box ATPase) of plasmid pSM19035, wild type (Streptococcus pyogenes (plasmid pSM19035)); test: SEC + cross-linking
[2] = molecular target: δ2K36A (Walker A mutant of protein δ) (Streptococcus pyogenes (plasmid pSM19035)); test: SEC + cross-linking

Substance | stoichiometry N [1] | stoichiometry N [2]
protein δ (ParA-Ib type Walker-box ATPase) of plasmid pSM19035, wild type (enzyme) | 2 | –
δ2K36A (Walker A mutant of protein δ) (enzyme) | – | 2
